Measured values from patent US20030166162.

Assays:
[1] = target: glutathione S transferase KLIP 16 chymosin pro-peptide cystatin fusion protein
[2] = target: T1, GST-wild type calf chymosin pro-peptide-cystatin fusion protein, P09229
T1 chain: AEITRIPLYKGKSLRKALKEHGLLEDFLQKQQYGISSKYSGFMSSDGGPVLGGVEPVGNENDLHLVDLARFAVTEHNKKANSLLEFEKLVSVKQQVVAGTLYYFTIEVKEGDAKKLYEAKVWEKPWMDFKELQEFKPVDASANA

[3] = target: glutathione S transferase KLIP 12 chymosin pro-peptide cystatin fusion protein
[4] = target: glutathione S transferase KLIP 14 chymosin pro-peptide cystatin fusion protein
[5] = target: glutathione S transferase KLIP 15 chymosin pro-peptide cystatin fusion protein
[6] = target: glutathione S transferase KLIP 11 chymosin pro-peptide cystatin fusion protein
[7] = target: glutathione S transferase KLIP 4 chymosin pro-peptide cystatin fusion protein

B1: calf chymosin (protein)
chain: GEVASVPLTNYLDSQYFGKIYLGTPPQEFTVLFDTGSSDFWVPSIYCKSNACKNHQRFDPRKSSTFQNLGKPLSIHYGTGSMQGILGYDTVTVSNIVDIQQTVGLSTQEPGDVFTYAEFDGILGMAYPSLASEYSIPVFDNMMNRHLVAQDLFSVYMDRNGQESMLTLGAIDPSYYTGSLHWVPVTVQQYWQFTVDSVTISGVVVACEGGCQAILDTGTSKLVGPSSDILNIQQAIGATQNQYGEFDIDCDNLSYMPTVVFEINGKMYPLTPSAYTSQDQGFCTSGFQSENHSQKWILGDVFIREYYSVFDRANNLVGLAKAI
Work on B1 yielded a % Cystatin accumulation following reaction, 0.5 hr @ 37 C [1] of 0%, a % Cystatin accumulation following reaction, 1.0 hr @ 37 C [1] of 0% and a % Cystatin accumulation following reaction, 2.0 hr @ 37 C [1] of 0%. For the same protein, the % Cystatin accumulation following reaction, 16 hr @ RT [1] was 0%, the % Cystatin accumulation following reaction, T = 0 [1] was 0% and the “Scissile bond (N-terminal sequence)” value [1] was “Uncleavable”. The % Cystatin accumulation following reaction, 16 hr @ RT; product with N-terminus MSSDGG [2] was 50%, the % Cystatin accumulation following reaction, 16 hr @ RT; product with N-terminus SGFMSSDGG [2] was 50% and the % Cystatin accumulation following reaction, T = 0 [2] was 0%. For the same protein, the % Cystatin accumulation following reaction, 0.5 hr @ 37 C [3] was 84%, the % Cystatin accumulation following reaction, 1.0 hr @ 37 C [3] was 99.4% and the % Cystatin accumulation following reaction, 2.0 hr @ 37 C [3] was 87%. The % Cystatin accumulation following reaction, 16 hr @ RT [3] was 64%, the % Cystatin accumulation following reaction, T = 0 [3] was 0% and the % Cystatin accumulation following reaction, 0.5 hr @ 37 C [4] was 72%. The % Cystatin accumulation following reaction, 1.0 hr @ 37 C [4] was 87%, the % Cystatin accumulation following reaction, 2.0 hr @ 37 C [4] was 99% and the % Cystatin accumulation following reaction, 16 hr @ RT [4] was 70%. The % Cystatin accumulation following reaction, T = 0 [4] was 0%, the % Cystatin accumulation following reaction, 0.5 hr @ 37 C [5] was 40% and the % Cystatin accumulation following reaction, 1.0 hr @ 37 C [5] was 57.8%. For the same protein, the % Cystatin accumulation following reaction, 2.0 hr @ 37 C [5] was 77.8%, the % Cystatin accumulation following reaction, 16 hr @ RT [5] was 85% and the % Cystatin accumulation following reaction, T = 0 [5] was 0%. For the same protein, the % Cystatin accumulation following reaction, 0.5 hr @ 37 C [6] was 83%, the % Cystatin accumulation following reaction, 1.0 hr @ 37 C [6] was 80.5% and the % Cystatin accumulation following reaction, 2.0 hr @ 37 C [6] was 100%. It also gave a % Cystatin accumulation following reaction, 16 hr @ RT [6] of 67.8%, a % Cystatin accumulation following reaction, T = 0 [6] of 0% and a % Cystatin accumulation following reaction, 0.5 hr @ 37 C [7] of 100%. The % Cystatin accumulation following reaction, 1.0 hr @ 37 C [7] was 100%, the % Cystatin accumulation following reaction, 2.0 hr @ 37 C [7] was 100% and the % Cystatin accumulation following reaction, 16 hr @ RT [7] was 87%. For the same protein, the % Cystatin accumulation following reaction, T = 0 [7] was 0%.
